Molecular target: QtEnc^FLAG (encapsulin shell protein from Quasibacillus thermotolerans with a C-terminal FLAG tag) (Quasibacillus thermotolerans)

For “DD-mScarlet-I-QtSig (destabilized fluorescent cargo protein)”, the mScarlet-I fluorescence (RFP channel) of HepG2 cells coexpressing QtEnc^FLAG and the degron-tagged cargo; share of fluorescent cells; cells with the cargo alone gave a weak background signal was 20 % of cells.

Reference: PMC8002387
